Legend:
[1] = molecular target: gp41^27–154 (HIV ectodomain) (HIV-1); experiment: AUC
[2] = molecular target: HIV-1 gp41^27–194 (HIV-1 (HXB2)); experiment: AUC

| Substance | stoichiometry N [1] | stoichiometry N [2] |
| --- | --- | --- |
| gp41^27–154 (HIV ectodomain) (domain or fragment) | 3 |  |
| HIV-1 gp41^27–194 (domain or fragment) |  | 3 |

Reference: paper PMC4156547
